A word on the Kd: it is the concentration at which binding is half-saturated. Read a high Kd as a looser complex.

From patent US20090042291A1 (published 2009) come the findings set out here.

The target in assay [1] is T1, human FcγRIIb on cells (HEK293T cells transfected with human FcγRIIb cDNA; primary human B cells) (human, UniProt P31994 43-310).
T1 construct: whole, on cells; also called CD32b
T1 sequence (looked up): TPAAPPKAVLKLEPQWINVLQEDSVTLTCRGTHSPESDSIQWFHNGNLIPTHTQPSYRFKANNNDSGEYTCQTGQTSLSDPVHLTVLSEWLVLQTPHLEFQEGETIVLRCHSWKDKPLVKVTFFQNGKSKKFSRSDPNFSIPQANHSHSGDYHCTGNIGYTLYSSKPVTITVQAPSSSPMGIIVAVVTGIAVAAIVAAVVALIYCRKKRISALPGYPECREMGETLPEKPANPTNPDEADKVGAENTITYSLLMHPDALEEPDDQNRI
The assay can be described thus: flow cytometry on HEK293T cells transfected with human FcγRIIb, PE anti-human Fab detection. Background: In flow cytometry, cells or beads pass a laser one at a time.

In assay [2] the target is T2, human FcγRIIb receptor protein (R&D Systems) (human, UniProt P31994 46-217, limits assumed).
T2 construct: Bought
T2 sequence (looked up): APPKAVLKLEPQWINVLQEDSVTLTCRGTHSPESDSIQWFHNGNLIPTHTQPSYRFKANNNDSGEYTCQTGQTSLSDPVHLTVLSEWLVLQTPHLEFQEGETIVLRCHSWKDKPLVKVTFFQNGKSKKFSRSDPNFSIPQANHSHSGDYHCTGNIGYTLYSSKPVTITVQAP
Description: Biacore SPR. (In general: SPR reads the build-up and loss of mass on a sensor chip optically.)

B1: anti-CD19 HuAM4G7 IgG1 S267E/L328F (antibody)
chain 1: not shown
chain 2: DIVMTQSPATLSLSPGERATLSCRSSKSLQNVNGNTYLYWFQQKPGQSPQLLIYRMSNLNSGVPDRFSGSGSGTEFTLTISSLEPEDFAVYYCMQHLEYPITFGAGTKLEIKRTVAAPSVFIFPPSDEQLKSGTASVVCLLNNFYPREAKVQWKVDNALQSGNSQESVTEQDSKDSTYSLSSTLTLSKADYEKHKVYACEVTHQGLSSPVTKSFNRGEC
Turning to B1, the “EC50 fold relative to WT IgG1” value in assay [1] is around 320 fold.

B2: anti-CD19 HuAM4G7 IgG1 S267E (antibody)
chain 1: not shown
chain 2: DIVMTQSPATLSLSPGERATLSCRSSKSLQNVNGNTYLYWFQQKPGQSPQLLIYRMSNLNSGVPDRFSGSGSGTEFTLTISSLEPEDFAVYYCMQHLEYPITFGAGTKLEIKRTVAAPSVFIFPPSDEQLKSGTASVVCLLNNFYPREAKVQWKVDNALQSGNSQESVTEQDSKDSTYSLSSTLTLSKADYEKHKVYACEVTHQGLSSPVTKSFNRGEC
Consider B2, for which, in assay [2], the dissociation constant Kd turned out to be 71.9 nM and the “fold relative to native IgG1” value is 20.4 fold.

B3: anti-CD19 HuAM4G7 IgG1 S267A (antibody)
chain 1: not shown
chain 2: DIVMTQSPATLSLSPGERATLSCRSSKSLQNVNGNTYLYWFQQKPGQSPQLLIYRMSNLNSGVPDRFSGSGSGTEFTLTISSLEPEDFAVYYCMQHLEYPITFGAGTKLEIKRTVAAPSVFIFPPSDEQLKSGTASVVCLLNNFYPREAKVQWKVDNALQSGNSQESVTEQDSKDSTYSLSSTLTLSKADYEKHKVYACEVTHQGLSSPVTKSFNRGEC
As for B3, in assay [2], the affinity, expressed as Kd, was 408 nM and the “fold relative to native IgG1” value was determined as 3.6 fold.
